Assay: soluble on expression in E. coli; label from the status in PepcDB or PDB records

Sequence | soluble on expression in E. coli
MAIYYNGLKIESNEEVYEPAEDTFLLAESLLDEVKSDDIVLDVGTGTGILALLAARRARFVVGLDINEKAINLAWKNAKINGIKNVVFILSDLFENIRGTFDLIVFNPPYLPGEEIKDKVDLALIGGKTGGEVISRFLGSVKDYLSSRGRILLIYSSLTGLDVEKAFKERGFSTSIVKRRRFFFEELYVMKAELSSRL | soluble
EFRKLGEVCEILDNRRIPIAKNKRNPGIYPYYGANGIQDYIDSYIFDGDFVLVGEDGSVINKDNTPVVNWASGKIWVNNHAHVLQTKNELKLKFLYFYLQTIDVSYCVAGTPPKINQENLKKIAIPIPPLEIQQEIVKILDQFSI | not soluble
MGSDKIHHHHHHMENKPFIFGVATSGDNFTDREKETERLLLNFQHGVNTVLISPRRWGKTSLVQKACHLAQSDKLKVVYLDIFSCRSDRDFYDAFAAAILKQTSSKLDEWLENTKLFLSRISPKISIGTDPMTDFSISLEMNPQSNDVDEILQLPEKIAQKKGYNIVVCIDEFQQIAEFKDSKTFQKRLRSVWQLQKSVSYCLFGSKKHLMNELFEKKSLPFYKFGDAIYLPKIGTCDWINYICGRFEATGKQISKELAEKICQRVDNHSSYVQQLAWLVWIHTDKVATEQNFEEAYQDIIDQNTPLFEKQTESLTTYQMNFLRAILDGVHSEFTTQEILQKYKLGSSANVSIVKRALVKKELIEIEKRKVIIPDPVMKVWLKKELGGV | not soluble
MKSNKSKYKLVVDYVIDGINEGRLKKGAWIPSLNEFREMYGLSRDTVFSGIRELKSRGIIKSNPGVGYYIVSTRVPFKHNIFLLFNEFNEFKEDIYNSFMETVGNSATVDLYFHNYNRKVFETLVNNANHKYTTYIIMSGKFADIGPLLESLSGNVFLLDHYHSELKGKYSSVFQNFEKDTYEALVYGLSNLRKYKHIVMVQKDSKEPFERYDGLRAFCKEHGFTHECIGEIQGREIVKQEVFMVVNDRDLVNLLKQADRQQLVPGKDFGIISYNDTPLKEVLAGGITTLSTDFKLMGRTMASLINKKTIETIENPWNLNIRNSL | not soluble
MSLDSLYVNDFYKGDRNITKFLKLELEMYDWKLMILHYLGLDHIGHVEGPFSDKVPGKLKEMDKVIKTIYHTMDKWKYYTKPLLVITGDHGMRDSGGHGGSSHAETIVPVVIVSDQCAKSEETFLQIDEGHHHHHH | not soluble
PSQVFKPLVSLFSPIEPSVYEARGRLPREQLGETRLDYDRTFQLASVEAARLGIAEPIGELYYSFEYNFFGAGFGDHDDPMGKSWLFFHGSDGRLLGQEVAGQGSWGERFYRLQYPIHGGRIAGLPGR | not soluble
GSPPAQLSVHTVSWNSGHERAPTNLEELLGLNSGETPDVIAVAVQGFGFQTDKPQQGPACVKNFQSLLTSKGYTKLKNTITETMGLTVYCLEKHLDQNTLKNETIIVTVDDQKKSGGIVTSFTIYNKRFSFTTSRMSDEDVTSTNTKYAYDTRLDYSKKDDPSDFLFWIGDLNVRVETNATHAKSLVDQNNIDGLMAFDQLKKAKEQKLFDGWTEPQVTFKPTYKFKPNTDEYDLSATPSWTDRALYKSGTGKTIQPLSYNSLTNYKQTEHRPVLAKFRVTL | soluble
MSNPEQHIQDLALEEVMGDRFGRYSKYIIQERALPDVRDGLKPVQRRILFAMNVEGNTAEKGFRKSAKTVGNVIGNYHPHGDSSVYEAMVRMSQDWKVRNMLIEMHGNNGSVDGDPPAAMRYTEARLSPISAELLRDIEKETVDFIPNFDDTSSEPTVLPARFPNLLVNGSTGISAGYATDIPPHNLTEIIEAVIKRLDNPLCTTDDIMKIVKGPDFPTGGIIQGIDGIRKAYQTGKGRVVVRSKTEIEDIRGGRKQITIHEIPYEVNKANLVKRMDELRIEKKIEGISEVRDETDRTGLRIAVELKKDANAEGVLNYLFKNTDLQVSYNFNMVAINKKRPELMGIIPMLDAYIEHQKEIITKRSEYDIRKARARQHILEGLIKALSILDEVIKLIRGSKDKRDAKLNLQTKYDFSEKQAEAIVSLQLYRLTNTDIHELQSEAKSLAEQISVLEKILGDEAELIAVLKEELAEIKKKYKTARRTEVQAEIAEIKIDTEVLVANEDVIVSVTKEGYVKRTSQRSYAASNGAELAMKEADHAIFIQKMNSLDSLLLFTSKGNFIYRPVHELPDIRWKNLGDHVSHLASDLSAGEEIRSAIAIQAFTEEKRFLFVTKNGMTKQSAITNYKPQRYSKSMMAIKLKGDDELLSVHLIDGTEDIFLATKNGYGLRYSITEIPESGARTAGVKAINLKQDDIVIGGIVLMPNEQKHILLATQRGSLKQMKASEFEPISRAKRGLLMLRELKSNPHRFIGITLADNNDHLFIETNTDQIVEIDVANLRITDRYSNGSFVLDETMEGEPTSIWLAIPEIKDTSDAKEE | not soluble
MTLAIEMKDVMKSFNEKTALRNVNIEVKQGEIFGFLGPSGSGKTTTVKILTSQLLHSVGTVRVLGKDITGPSSIDYKRIGILTDNSGLYERLSIYDNLLLFCDLYDCKKERIDEVLAQVNLLEDKKTLVKKLSKGMKQRVTLARAILHKPDILFLDEPTSALDPVNVQNIHKILKDLNREGTTIFLTTHNMDEAETLCNRIAFLCSGEIVALDTPENLRLQYAKDQIQVVLKDKKKETVQKDELGAKRISEWMKKGELLSIHSYEPTLGDIFIEVTGRGL | not soluble
MSPLSSGLLGDLDPTSDRAVFRQIADQLREAIDRGRFREGEKLPSEAELVDHYGVSRMTVRNSFSILQGEGLVHAEHGKGVFVRPRPPVRRLASDRFARRHREQGKSAFIVEADAVGSHPKVDSLEVKEEKASQDISTRLGSVRRVLARRRRYLLDGRPVEFATSYLPLDIARGTQIAEPNPGPGGIYARLEELGHRLDHFEEEIRARMPSPAEVKTLHLAAGVPVIHLIRTAFDTEGRAVEVCDTVMAADAYVLSYQLPAT | not soluble
MSSKNEQTPKVPAELDPLNETIFREQMYAIYQVCQYPSKEQYAEWAQTYQIQQRRIRKWFDNRRTRDRERRKRKGDDNEDSSEISKRGRVTCGLDYKNHEEESTDDFQDDIEELDNSQFEMAKVSSIRDELKDVKSESPPVMEQSFHLRTVQHVSTPRRDRIIPESQTLFVPAGCSLDYEKWTPAEFLQWTSNFLSSAQAMDIIKSQEISGDTMESFFDDPDFRKETGMPYGPFQTIKKHAATVINRFNGYE | not soluble
MNDRADFVVPDITTRKNVGLSHDANDFTLPQPLDRYSAEDHATWATLYQRQCKLLPGRACDEFLEGLERLEVDADRVPDFNKLNEKLMAATGWKIVAVPGLIPDDVFFEHLANRRFPVTWWLREPHQLDYLQEPDVFHDLFGHVPLLINPVFADYLEAYGKGGVKAKALGALPMLARLYWYTVEFGLINTPAGMRIYGAGILSSKSESIYCLDSASPNRVGFDLMRIMNTRYRIDTFQKTYFVIDSFKQLFDATAPDFAPLYLQLADAQPWGAGDIAPDDLVLNAGDHQGWADTEDV | soluble
MGHHHHHHSHMLINARISVRSYPKYQRFSFFYALLFKRIDLILAQSKEDKKRLLNLGAKKVVDFLNIKRFSKPVITSFYPKNPSALNIVLASTHEGEEELGLKAFLELKKTFKNARLIVVPRHPERFKSVQDLLQNTLKTTPFSWECFSSKGFVECDILLVDSLGELNNFYQIADIVILGGSFVKMGGHNPLEPAFFNARLITGEYIFNQVALFELVKPYKIVPKEDLLDALLDYKNLGMARFLENGHDLNELLAFIKH | not soluble
MKLPLFPLPICLLPEGYTQLRIFEPRYKRLVAESLKSGDGFGLCMTSEEVNTLYPIGTLVHIIDFETLSDGMLGVSIEGKQRFILGDISVESDGLKRAQINLIDNWPAAPIHENEHYLSDMLQNILKEYPKHLQQYQAAQFDDIAWVCQRWLEILPIRSAEKYTCINALDHQLTLDLLRTVIKLEHHHHHH | soluble
MGSDKIHHHHHHMDLMSFKEREISKKDCVELFEDTENFFDILKLADSIRKDIVGDTVTFVKNTNIETTNVCTMGCKFCAFSVSKNSPEAFKLDADEIAKKAVIAKKSGLTEVTIHGGIHPDVDTHFQVETINKVNSATSKLGGIYTHAYSPQEILNGAENAGLSIKEALKMLNEAGLRTIPGTAAEILDDEVRSDICPLKMSTKKWIDIMKTAHKTGIKTTSTIIYGHVEEYKHIVDHLSILKELQEETGGITEFIPMSFLHENTPLYKSGRVTDGASGLYELKLYAIARILFKESIKNIQAPRVKIGTKLSQLILKSGANDLGGTLVEDKVSKAAGSIYEDASVDLMKNAITSIGRIPKERTTLYEIIE | not soluble
